T1: CenpB (human, UniProt P07199 1-599)
T1 sequence (looked up): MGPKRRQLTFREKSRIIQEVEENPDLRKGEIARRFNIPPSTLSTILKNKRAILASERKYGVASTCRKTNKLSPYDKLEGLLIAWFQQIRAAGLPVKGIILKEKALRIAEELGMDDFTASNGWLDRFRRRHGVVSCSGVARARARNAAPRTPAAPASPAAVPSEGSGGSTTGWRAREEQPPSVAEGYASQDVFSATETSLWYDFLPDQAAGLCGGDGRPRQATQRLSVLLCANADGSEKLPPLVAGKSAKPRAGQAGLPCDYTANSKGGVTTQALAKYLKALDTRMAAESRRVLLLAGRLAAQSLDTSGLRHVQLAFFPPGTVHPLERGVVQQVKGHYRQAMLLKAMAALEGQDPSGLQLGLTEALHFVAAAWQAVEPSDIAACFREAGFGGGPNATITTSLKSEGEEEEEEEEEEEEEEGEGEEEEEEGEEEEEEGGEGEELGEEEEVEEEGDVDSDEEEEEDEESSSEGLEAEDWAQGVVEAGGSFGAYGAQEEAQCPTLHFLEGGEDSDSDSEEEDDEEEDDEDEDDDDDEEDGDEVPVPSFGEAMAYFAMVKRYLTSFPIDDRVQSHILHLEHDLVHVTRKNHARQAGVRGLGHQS

B1: MEL-1872 (antibody)
VH: KVQLRESGPSLVKPSQTLSLTCTASGFSLSDKAVGWVRQAPGQPLEWLGTIDTTGNAVYNPGLKSRLSITKDNSKSQVSLSLSSVTTEDSATYHCSTVHQKTRRSCPSDYSFICDCEGTGSHCCRASNCPYYCNYGRDRMCTGRSNIHEWHVDAWGQGLLVTVSS
VL: QAVLTQPSSVSGSLGQRVSTTCSGSSSNVGNGYVSWYQLIPGSAPRTLIYGDTSRASGVPDRFSGSRSGNTVTLTISSLQAEDEADYFCASAEDGSSNAVFGRGTTLTV
notes: also called H 1872; BrNAb MEL-1872
B2: MEL-1842 (antibody)
VH: KVQLQESGPSLVKPSQTLSLTCTASGFSLSDKAVGWVRQAPGQALEWLGSIDTGGNADYNPGLKSRLSITKDNAKSQVSLSVSSVTTEGSATYYCSTVHQKTLRSCPSDYPYICDCEDTGSHCCRATNCPYYCNHGRDRMCTGRTYTYEWHVEAWGQGLLVTVSS
VL: QAVLTQPSSVSGSLGQRVSTTCSGSSSNVGNGYVSWYQLIPGSAPRTLIYGDTSRASGVPDRFSGSRSGNTVTLTISSLQAEDEADYFCASAEDGSSNAVFGRGTTLTV
notes: also called H 1842; BrNAb MEL-1842
B3: MEL-2129 (antibody)
VH: KVQLRESGPSLVKPSQTLSLTCTASGFSLSDKAVGWVRQAPGKALEWLGSIDTGGNAGYNPGLKSRLSITKGNSKSQVSLSVSSVTTEDSATYYCSTVHQKTRRSCPVDYYYSCDCEGSGSHCCSASNCPYYCKYGRDRVCTDKHTYSYEWYVDAWGQGLLVTVSS
VL: QAVLTQPSSVSGSLGQRVSTTCSGSSSNVGNGYVSWYQLIPGSAPRTLIYGDTSRASGVPDRFSGSRSGNTVTLTISSLQAEDEADYFCASAEDGSSNAVFGRGTTLTV
notes: also called BrNAb MEL-2129

What was measured:
E87A = molecular target: T2, E87A (HIV-1); assay: capture ELISA on Env of lysed AD8 pseudovirus, % of WT
T2 construct: full-length Env of lysed pseudovirus; HXB-2 numbering

K121A = molecular target: T3, K121A (HIV-1); assay: as above
T3 construct: full-length Env of lysed pseudovirus; HXB-2 numbering

L179A = molecular target: T4, L179A (HIV-1); assay: as above
T4 construct: full-length Env of lysed pseudovirus; HXB-2 numbering

D185A = molecular target: T5, D185A (HIV-1); assay: as above
T5 construct: full-length Env of lysed pseudovirus; HXB-2 numbering

N197A = molecular target: T6, N197A (HIV-1); assay: as above
T6 construct: full-length Env of lysed pseudovirus; HXB-2 numbering

N262A = molecular target: T7, N262A (HIV-1); assay: as above
T7 construct: full-length Env of lysed pseudovirus; HXB-2 numbering

N276A = molecular target: T8, N276A (HIV-1); assay: as above
T8 construct: full-length Env of lysed pseudovirus; HXB-2 numbering

K282A = molecular target: T9, K282A (HIV-1); assay: as above
T9 construct: full-length Env of lysed pseudovirus; HXB-2 numbering

N283A = molecular target: T10, N283A (HIV-1); assay: as above
T10 construct: full-length Env of lysed pseudovirus; HXB-2 numbering

P313A = molecular target: T11, P313A (HIV-1); assay: as above
T11 construct: full-length Env of lysed pseudovirus; HXB-2 numbering

A329K = molecular target: T12, A329K (HIV-1); assay: as above
T12 construct: full-length Env of lysed pseudovirus; HXB-2 numbering

Q363A = molecular target: T13, Q363A (HIV-1); assay: as above
T13 construct: full-length Env of lysed pseudovirus; HXB-2 numbering

S364A = molecular target: T14, S364A (HIV-1); assay: as above
T14 construct: full-length Env of lysed pseudovirus; HXB-2 numbering

S365A = molecular target: T15, S365A (HIV-1); assay: as above
T15 construct: full-length Env of lysed pseudovirus; HXB-2 numbering

P369A = molecular target: T16, P369A (HIV-1); assay: as above
T16 construct: full-length Env of lysed pseudovirus; HXB-2 numbering

M373A = molecular target: T17, M373A (HIV-1); assay: as above
T17 construct: full-length Env of lysed pseudovirus; HXB-2 numbering

R419A = molecular target: T18, R419A (HIV-1); assay: as above
T18 construct: full-length Env of lysed pseudovirus; HXB-2 numbering

G472A = molecular target: T19, G472A (HIV-1); assay: as above
T19 construct: full-length Env of lysed pseudovirus; HXB-2 numbering

M475A = molecular target: T20, M475A (HIV-1); assay: as above
T20 construct: full-length Env of lysed pseudovirus; HXB-2 numbering

R476A = molecular target: T21, R476A (HIV-1); assay: as above
T21 construct: full-length Env of lysed pseudovirus; HXB-2 numbering

CenpB = molecular target: T1, CenpB; assay: single autoantigen ELISA (AESKULISA ANA-8Pro), FIG. 9A
From the text: Polyreactivity assay: Single autoantigen reactivity. […] ANA-8Pro (Aesku) for U1-ribonucleoprotein (RNP), SnRNP/Sm, Sm, SS-A, SS-B, Jo-1, Scl-70, and CenpB. The 96 wells were coated with these cellular and nuclear antigens for the qualitative detection of mAbs reactivity. The cut-off calibrator, negative control and positive control were provided by the manufacturer.

Binder | Env binding (%) at antibody EC50 (E87A) | Env binding (%) at antibody EC50 (K121A) | Env binding (%) at antibody EC50 (L179A) | Env binding (%) at antibody EC50 (D185A) | Env binding (%) at antibody EC50 (N197A) | Env binding (%) at antibody EC50 (N262A) | Env binding (%) at antibody EC50 (N276A) | Env binding (%) at antibody EC50 (K282A) | Env binding (%) at antibody EC50 (N283A) | Env binding (%) at antibody EC50 (P313A) | Env binding (%) at antibody EC50 (A329K) | Env binding (%) at antibody EC50 (Q363A) | Env binding (%) at antibody EC50 (S364A) | Env binding (%) at antibody EC50 (S365A) | Env binding (%) at antibody EC50 (P369A) | Env binding (%) at antibody EC50 (M373A) | Env binding (%) at antibody EC50 (R419A) | Env binding (%) at antibody EC50 (G472A) | Env binding (%) at antibody EC50 (M475A) | Env binding (%) at antibody EC50 (R476A) | also measured
B1 | 87% | 94% | 110% | 99% | 92% | 27% | 100% | 63% | 76% | 100% | 38% | 93% | 75% | 70% | 88% | 102% | 108% | 29% | 82% | 57% | –
B2 | 108% | 107% | 110% | 100% | 93% | 44% | 100% | 84% | 82% | 100% | 101% | 97% | – | 37% | 94% | 102% | 110% | 39% | 99% | 81% | binding result (CenpB): no binding (tested: 100 µg/ml)
B3 | 81% | 80% | 101% | 93% | 82% | 18% | 89% | 85% | 64% | 84% | 46% | 79% | 42% | 126% | 81% | 92% | 93% | 15% | 63% | 64% | binding result (CenpB): no binding (tested: 100 µg/ml)
